In patent US10064926B2, “Peptides and combination of peptides for use in immunotherapy against hepatocellular carcinoma (HCC) and other cancers” (Immatics biotechnologies GmbH, priority 2014, dated 2018):

biological target: HLA-A*02 (Homo sapiens, UniProt P04439, D140Y/D185E/D98H/E176V/E277Q/G131W/G231S/I119V/I121R/I166T/I218V/N151K/N90K/P208A/P217A/Q86G/Q94H/R138H/R169H); assay: UV-ligand exchange / peptide binding to MHC class I (beta2m ELISA); details: Table 10B; peptide exchange yield; HLA-A*02 peptides
Text: Candidate peptides for T cell based therapies according to the present invention were further tested for their MHC binding capacity (affinity). The individual peptide-MHC complexes were produced by UV-ligand exchange, where a UV-sensitive peptide is cleaved upon UV-irradiation, and exchanged with the peptide of interest as analyzed. Only peptide candidates that can effectively bind and stabilize the peptide-receptive MHC molecules prevent dissociation of the MHC complexes. To determine the yield of the exchange reaction, an ELISA was performed based on the detection of the light chain (β2m) of stabilized MHC complexes. The assay was performed as generally described in Rodenko et al. (Rodenko B, Toebes M, Hadrup S R, van Esch W J, Molenaar A M, Schumacher T N, Ovaa H. Generation of peptide-MHC class I complexes through UV-mediated ligand exchange. Nat Protoc. 2006; 1(3):1120-32).
96 well MAXISorp plates (NUNC) were coated over night with 2 ug/ml streptavidin in PBS at room temperature, washed 4× and blocked for 1 h at 37° C. in 2% BSA containing blocking buffer. Refolded HLA-A*0201/MLA-001 monomers served as standards, covering the range of 15-500 ng/ml. Peptide-MHC monomers of the UV-exchange reaction were diluted 100 fold in blocking buffer. Samples were incubated for 1 h at 37° C., washed four times, incubated with 2 ug/ml HRP conjugated anti-β2m for 1 h at 37° C., washed again and detected with TMB solution that is stopped with […]. Absorption was measured at 450 nm. Candidate peptides that show a high exchange yield (preferably higher than 50%, most preferred higher than 75%) are generally preferred for a generation and production of antibodies or fragments thereof, and/or T cell receptors or fragments thereof, as they show sufficient avidity to the MHC molecules and prevent dissociation of the MHC complexes.

Substance | Peptide exchange (MHC class I binding score)
66 (KLHEEIDRV; listed as Homo sapiens) [compound 66] | “+++” (≥50 = +++)
67 (KLKETIQKL; listed as Homo sapiens) [compound 67] | “+++” (≥50 = +++)
68 (KLLAATVLLL; listed as Homo sapiens) [compound 68] | “++” (≥20% = ++)
69 (KLLDEVTYLEA; listed as Homo sapiens) [compound 69] | “++++” (≥75% = ++++)
70 (KLLDLETERILL; listed as Homo sapiens) [compound 70] | “++++” (≥75% = ++++)
71 (KLLDNWDSV; listed as Homo sapiens) [compound 71] | “++++” (≥75% = ++++)
72 (KLSEAVTSV; listed as Homo sapiens) [compound 72] | “+++” (≥50 = +++)
74 (KLYDLELIV; listed as Homo sapiens) [compound 74] | “+++” (≥50 = +++)
75 (KQMEPLHAV; listed as Homo sapiens) [compound 75] | “++” (≥20% = ++)
76 (LLADIGGDPFAA; listed as Homo sapiens) [compound 76] | “+++” (≥50 = +++)
77 (LLHEENFSV; listed as Homo sapiens) [compound 77] | “+++” (≥50 = +++)
78 (LLIDDEYKV; listed as Homo sapiens) [compound 78] | “+++” (≥50 = +++)
80 (LLYEGKLTL; listed as Homo sapiens) [compound 80] | “++++” (≥75% = ++++)
81 (NLASFIEQVAV; listed as Homo sapiens) [compound 81] | “+++” (≥50 = +++)
82 (NVFDGLVRV; listed as Homo sapiens) [compound 82] | “+++” (≥50 = +++)
83 (QLHDFVMSL; listed as Homo sapiens) [compound 83] | “++++” (≥75% = ++++)
84 (QLTPVLVSV; listed as Homo sapiens) [compound 84] | “+++” (≥50 = +++)
85 (RILPKVLEV; listed as Homo sapiens) [compound 85] | “+++” (≥50 = +++)
86 (RLAAFYSQV; listed as Homo sapiens) [compound 86] | “+++” (≥50 = +++)
87 (RLFEENDVNL; listed as Homo sapiens) [compound 87] | “+++” (≥50 = +++)
88 (RLIDRIKTV; listed as Homo sapiens) [compound 88] | “++” (≥20% = ++)
89 (RLIEEIKNV; listed as Homo sapiens) [compound 89] | “++” (≥20% = ++)

Substance | Peptide exchange (MHC class I binding score)
90 (RLLDVLAPLV; listed as Homo sapiens) [compound 90] | “+++” (≥50 = +++)
91 (RLPDIPLRQV; listed as Homo sapiens) [compound 91] | “+++” (≥50 = +++)
92 (RLPPDTLLQQV; listed as Homo sapiens) [compound 92] | “+++” (≥50 = +++)
93 (RLYTMDGITV; listed as Homo sapiens) [compound 93] | “++” (≥20% = ++)
94 (RMSDVVKGV; listed as Homo sapiens) [compound 94] | “+++” (≥50 = +++)
95 (SICNGVPMV; listed as Homo sapiens) [compound 95] | “+++” (≥50 = +++)
96 (SLLEEPNVIRV; listed as Homo sapiens) [compound 96] | “++++” (≥75% = ++++)
97 (SLLPQLIEV; listed as Homo sapiens) [compound 97] | “++++” (≥75% = ++++)
98 (SLLSPEHLQYL; listed as Homo sapiens) [compound 98] | “+++” (≥50 = +++)
99 (SLSAFLPSL; listed as Homo sapiens) [compound 99] | “++++” (≥75% = ++++)
100 (SLVGDIGNVNM; listed as Homo sapiens) [compound 100] | “++” (≥20% = ++)
101 (SLWEGGVRGV; listed as Homo sapiens) [compound 101] | “+++” (≥50 = +++)
102 (SLWSVARGV; listed as Homo sapiens) [compound 102] | “+++” (≥50 = +++)
103 (SMGDHLWVA; listed as Homo sapiens) [compound 103] | “+++” (≥50 = +++)
104 (SVWFGPKEV; listed as Homo sapiens) [compound 104] | “+++” (≥50 = +++)
105 (SVYDGKLLI; listed as Homo sapiens) [compound 105] | “++++” (≥75% = ++++)
106 (TLAAIIHGA; listed as Homo sapiens) [compound 106] | “+++” (≥50 = +++)
107 (TLGQFYQEV; listed as Homo sapiens) [compound 107] | “++++” (≥75% = ++++)
108 (TLLKKISEA; listed as Homo sapiens) [compound 108] | “+++” (≥50 = +++)
109 (TLYALSHAV; listed as Homo sapiens) [compound 109] | “+++” (≥50 = +++)
110 (TVGGSEILFEV; listed as Homo sapiens) [compound 110] | “++++” (≥75% = ++++)
111 (TVMDIDTSGTFNV; listed as Homo sapiens) [compound 111] | “+++” (≥50 = +++)

Substance | Peptide exchange (MHC class I binding score)
112 (VLGEVKVGV; listed as Homo sapiens) [compound 112] | “++++” (≥75% = ++++)
113 (VLMDKLVEL; listed as Homo sapiens) [compound 113] | “++++” (≥75% = ++++)
114 (VLSQVYSKV; listed as Homo sapiens) [compound 114] | “+++” (≥50 = +++)
115 (VVLDDKDYFL; listed as Homo sapiens) [compound 115] | “+++” (≥50 = +++)
117 (YAFPKSITV; listed as Homo sapiens) [compound 117] | “+++” (≥50 = +++)
118 (YLDDEKNWGL; listed as Homo sapiens) [compound 118] | “+++” (≥50 = +++)
119 (YLDKNLTVSV; listed as Homo sapiens) [compound 119] | “+++” (≥50 = +++)
120 (YLGEEYVKA; listed as Homo sapiens) [compound 120] | “++” (≥20% = ++)
121 (YLITGNLEKL; listed as Homo sapiens) [compound 121] | “+++” (≥50 = +++)
122 (YLSQAADGAKVL; listed as Homo sapiens) [compound 122] | “++” (≥20% = ++)
123 (YLWDLDHGFAGV; listed as Homo sapiens) [compound 123] | “+++” (≥50 = +++)
124 (LLIDVVTYL; listed as Homo sapiens) [compound 124] | “++++” (≥75% = ++++)
125 (ALYGRLEVV; listed as Homo sapiens) [compound 125] | “++++” (≥75% = ++++)
126 (TLLDSPIKV; listed as Homo sapiens) [compound 126] | “+++” (≥50 = +++)
127 (VLIGSNHSL; listed as Homo sapiens) [compound 127] | “++++” (≥75% = ++++)
128 (GLAFSLNGV; listed as Homo sapiens) [compound 128] | “++++” (≥75% = ++++)
129 (SQADVIPAV; listed as Homo sapiens) [compound 129] | “+++” (≥50 = +++)
130 (ALDAGAVYTL; listed as Homo sapiens) [compound 130] | “++++” (≥75% = ++++)
131 (ALDSGAFQSV; listed as Homo sapiens) [compound 131] | “+++” (≥50 = +++)
132 (ALHEEVVGV; listed as Homo sapiens) [compound 132] | “+++” (≥50 = +++)
133 (ALLEMDARL; listed as Homo sapiens) [compound 133] | “+++” (≥50 = +++)
